pKd: −log10 of the molar value.
Biological target: NKp30 (species and construct not stated) (UniProt O14931)
Experiment: ELISA
Settings: ligand

Chain of NKp30 (species and construct not stated) (O14931 19-135): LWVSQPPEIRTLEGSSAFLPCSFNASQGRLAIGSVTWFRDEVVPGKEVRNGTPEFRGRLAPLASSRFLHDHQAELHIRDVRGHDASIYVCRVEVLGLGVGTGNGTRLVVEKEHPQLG
Chain of B7-H6 (Q68D85 25-262): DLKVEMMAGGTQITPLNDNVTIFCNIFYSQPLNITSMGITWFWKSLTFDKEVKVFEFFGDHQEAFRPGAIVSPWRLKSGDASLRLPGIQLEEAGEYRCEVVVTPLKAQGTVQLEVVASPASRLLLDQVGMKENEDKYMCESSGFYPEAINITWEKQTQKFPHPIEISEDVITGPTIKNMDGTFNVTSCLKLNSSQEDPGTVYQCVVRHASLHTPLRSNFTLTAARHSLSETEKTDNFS

Substance: B7-H6 (from UniProt Q68D85 25-262)
- pKd: 8.18

From US20230357395A1
